Results published in paper PMC9500407, “Quantifying the transport of biologics across intestinal barrier models in real-time by fluorescent imaging” (Frontiers in Bioengineering and Biotechnology, 2022).

Tests used:
[1] = tested on: Caco-2:HT29-MTX E12 coculture tubules; assay: Barrier integrity monitored by co-applied TRITC-dextran (TD) during peptide transport; format: cell-based, human; details: INS chips with and without TAT
Procedure: Here, the cells were counterstained with Hoechst (H1399, Thermo Fischer, 10 μg ml^−1) and incubated for 1 h at 37°C, 5% CO2, washed with PBS and images were acquired using SD confocal microscopy with 488 nm laser and 520/28 BrightLine HC filters for detecting FITC-labelled TAT and the 405 nm laser and 442/42 BrightLine HC filter for acquiring Hoechst. The cell tubules exposed to TAT/INS (24 µM/50 μM, IS1-AF647-1, Nanocs) were stained with above mentioned cellular dyes and CellMask-green (C37608, Thermo Fisher, 1:500) for 30 min on ice after 3 h of incubation. The transport of TAT was tracked over 2 h, acquiring time lapse images every 30 s using epi-fluorescence microscopy (see Imaging modalities). […] To simultaneously monitor the barrier integrity TD (0.5 mg ml^−1) was co-applied to the chips and measured in parallel to TAT. For the quantification of both TAT, INS and TD transport across the cell barrier, calibration curves were established. […]
Next we used the platform to study the barrier transport kinetics of TAT. We performed whole-chip real-time live cell imaging, to quantify the concentration of TAT transported across the coculture cell layer and reaching the receiving channel (Figure 6B). […] Both the FITC and TRITC channels were recorded for each tubular system every 30 s for a total of 2.5 h. […]

[2] = tested on: Caco-2:HT29-MTX E12 coculture tubules; assay: Live cell imaging of cellular uptake and intracellular localization in coculture tubules; format: cell-based, human
Procedure: Spinning disc (SD) confocal microscopy was performed on a Nikon Ti2 inverted microscope equipped with a Yokogawa CSU-W1 module and a Photometrics Prime 95B sCMOS camera was used for all experiments (excl. Image-based TAT transport). The set-up includes four excitation lasers 405/488/561/638 nm with 442/42, 520/28 BrightLine HC filters and 600/50 ET, 700/75 ET bandpass filters. For this work, a set of CFI Plan Apochromat Lambda objectives were used: ×4/0.2, 20x/0.75, 60x/1.4 and 100x/1.45. For image-based transport experiments, epi-fluorescence microscopy was performed using a Nikon Eclipse Ti2 microscope equipped with an LED source (CoolLED), a dual-band filter cube (AHF, Excitation 455–489 nm, 557–588 nm; Emission 506–542 nm, 605–660 nm) and a Photometrics Evolve 512 electron-multiplying charge-coupled device camera was used (10x N.A. 0.30).
Here, the cells were counterstained with Hoechst (H1399, Thermo Fischer, 10 μg ml^−1) and incubated for 1 h at 37°C, 5% CO2, washed with PBS and images were acquired using SD confocal microscopy with 488 nm laser and 520/28 BrightLine HC filters for detecting FITC-labelled TAT and the 405 nm laser and 442/42 BrightLine HC filter for acquiring Hoechst. […] The transport of TAT was tracked over 2 h, acquiring time lapse images every 30 s using epi-fluorescence microscopy (see Imaging modalities). […]

[3] = tested on: Caco-2:HT29-MTX E12 coculture tubules; assay: Image-based real-time quantification of TAT and TAT/INS transport across coculture tubules; details: 50 µM INS, whether or not TAT (24 µM) was present, over 3 h, n = 3
Procedure: We performed whole-chip real-time live cell imaging, to quantify the concentration of TAT transported across the coculture cell layer and reaching the receiving channel (Figure 6B). […] Both the FITC and TRITC channels were recorded for each tubular system every 30 s for a total of 2.5 h. […] A calibration experiment where known concentrations of TAT or TD were added to a chip without cells allowed us to convert the measured intensities to actual concentration in μM and mg mL^−1 respectively (Supplementary Figure S5). […]

INS: AlexaFluor647-labeled insulin (IS1-AF647-1, Nanocs)
Barrier integrity [1]: not compromised significantly
Intracellular localization of INS ([2]; INS and INS/TAT, 3 h, 100x, indicating endosomal uptake): localized inside the cytosol in punctual patterns
Cellular internalization of INS ([2]; after 3 h, live cell imaging, with and without TAT): internalized into the enterocyte cell layer even without TAT
INS transport across the cell barrier [3]: no INS transport across the cell barrier
